Sequences and labels used below:
B1: Tyrosine-protein phosphatase non-receptor type 1 (Homo sapiens), P18031 (parent)
chain: MEMEKEFEQIDKSGSWAAIYQDIRHEASDFPCRVAKLPKNKNRNRYRDVSPFDHSRIKLHQEDNDYINASLIKMEEAQRSYILTQGPLPNTCGHFWEMVWEQKSRGVVMLNRVMEKGSLKCAQYWPQKEEKEMIFEDTNLKLTLISEDIKSYYTVRQLELENLTTQETREILHFHYTTWPDFGVPESPASFLNFLFKVRESGSLSPEHGPVVVHCSAGIGRSGTFCLADTCLLLMDKRKDPSSVDIKKVLLEMRKFRMGLIQTADQLRFSYLAVIEGAKFIMGDSSVQDQWKELSHEDLEPPPEHIPPPPRPPKRILEPHNGKCREFFPNHQWVKEETQEDKDCPIKEEKGSPLNAAPYGIESMSQDTEVRSRVVGGSLRGAQAASPAKGEPSLPEKDEDHALSYWKPFLVNMCVATVLTAGAYLCYRFLFNSNT
partner: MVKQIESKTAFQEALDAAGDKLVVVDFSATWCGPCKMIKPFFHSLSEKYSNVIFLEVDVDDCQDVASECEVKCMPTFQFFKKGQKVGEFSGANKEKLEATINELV

Variants of B1 are the subject of this test. The following applies: with thio_human TXN.
MEMEKEFEQIDKSGSWAAIYQDIRHEASDFPCRVAKLPKNKNRNRYRDVSPFDHSRIKLHQEDNDYINASLIKMEEAQRSYILTQGPLPNTCGHFWEMVWEQKSRGVVMLNRVMEKGSLKCAQYWPQKEEKEMIFEDTNLKLTLISEDIKSYYTVRQLELENLTTQETREILHFHYTTWPDFGVPESPASFLNFLFKVRESGSLSPEHGPVVVHAAAGIGRSGTFCLADTCLLLMDKRKDPSSVDIKKVLLEMRKFRMGLIQTADQLRFSYLAVIEGAKFIMGDSSVQDQWKELSHEDLEPPPEHIPPPPRPPKRILEPHNGKCREFFPNHQWVKEETQEDKDCPIKEEKGSPLNAAPYGIESMSQDTEVRSRVVGGSLRGAQAASPAKGEPSLPEKDEDHALSYWKPFLVNMCVATVLTAGAYLCYRFLFNSNT [C215A;S216A]: the “effect of a mutation on the interaction” value is listed as “disrupting interaction”.

The values above are taken from IntAct's records for PubMed 24976139.
